Experimental findings from article PMC3347318 are described below.

For the assay, the target named is Sudan virus Boniface (SUDV-Bon) glycoprotein GP1,2, mucin-like domain and transmembrane domain delet (Sudan virus, variant Boniface) (UniProt Q66814). As to the kind of experiment: crystal structure.

With “Sudan virus Boniface (SUDV-Bon) glycoprotein GP1,2, mucin-like domain and transmembrane domain delet (from UniProt Q66814) (complex)”, the stoichiometry N (in general, a count of units in the complex or per binding partner) is 3.
